Experimental data: patent publication US20140017267A1, “METALLOPROTEINASE OLIGOPEPTIDES AND THEIR THERAPEUTIC USE” (priority 2012, published 2014)

Experiments:
[1] = Testing of peptide solubility; assay type: physicochemical; details: 8M Urea, final concentration 1.1 mg/ml (first solubility table, headed TABLE 1)
Method: Testing of peptide solubility: Data for peptide solubility are represented in Table 1 and 2. Peptides SEQ ID 5-21 was dissolved in 8M Urea to a final concentration of 1.1 mg/ml.

BALB/c female mouse = experiment: Immune response to individual peptide: immunization of mice, indirect solid-phase immunoenzymatic assay of antiserum (A450); assay type: in vivo; details: for OD 450 Mean values (n = 3-5) for dilution 1:10,000: antiserum of mice immunized i.p. with 100 μg peptide+Str-HRP, day 38 bleed, serum dilution 1:10,000; for immune response: comparison among the 17 peptides
Method: Peptides were dissolved in appropriate volume 8M Urea and additional solution. Final concentration of peptide-Str-HRP solution was 0.8 mg/ml and 0.6 mg/ml for peptide and Str-HRP, respectively. After dissolving, 4 aliquotes in 0.2 ml portions were taken from each peptide solution, mixed with 0.6 ml Str-HRP and incubated over night at +4° C. Conjugate peptide with carrier protein (Str-HRP) was frozen and stored at −20° C. until further use. Final concentration of urea in peptide-Str-HRP solution was 2M for all peptides.
Day 0: Immunization with complete Freund's adjuvant Day 7: Booster with incomplete Freund's adjuvant Day 14: Booster with incomplete Freund's adjuvant Day 28: Booster with incomplete Freund's adjuvant Day 38: Terminal bleed
Method of Immunization: Frozen 0.8 ml aliquotes of peptide+Str-HRP conjugate were thawed at room temperature (RT) and mixed with 0.8 ml of appropriate adjuvant. Adjuvant was added and mixed by vortexing immediately before injections were given. Immunization was done by using intra peritoneal injections with 100 μg peptide per animal in final volume 250 μl of 1:1 (v:v) peptide+Str-HRP:adjuvant. Five animals were used per peptide.
Preparation of serum: At 38 days, the mouse was bled. Blood was collected in 2-ml microcentrifuge tube and the blood was allowed to clot at room temperature for 1 hour. Centrifugation using the microcentrifuge tube with the clot inside was done for 15 min at 2500 g and serum was collected. Volume for each sample was no less than 400 μl. The serum was stored at −20° C.
Testing immune response to individual peptide: Determination of mouse antibodies to peptide based on indirect solid-phase immunoenzymatic assay with avidin on solid-phase was performed. Materials used were 96-well polystyrene plates high binding (#9018 Costar, USA), all solution for ELISA: sample diluent (10 mM sodium phosphate, 500 mM NaCl, 0.5% BSA, 0.05% Tween-20, pH 7.4), conjugate diluent (10 mM sodium phosphate, 150 mM NaCl, 0.5% BSA, 0.05% Tween-20, pH 7.4), wash fluid (10 mM sodium phosphate, 300 mM NaCl, 0.05% Tween-20, pH 7.4), substrate buffer (50 mM sodium citrate and hydrogen peroxide, pH 5.0), TMB solution (3,3′,5,5′-tetramethylbenzidine), stop solution (2M sulphuric acid) were taken from EIA Kit for detection of antibody to HIV “Peptoscreen-2” (Amercard Ltd, Russia), conjugate of rabbit antibody to mouse IgG with HRPO (custom made), avidin from egg white (Imtek, Russia). Negative controls of 5 sera were pooled from the nonimmune BALB/c female mouse. Dispensing of solutions with Finnpipette digital adjustable volume pipettes 0.5-10 μl, 5-40 μl, 20-200 μl, 200-1000 μl, 1-5 ml and 12-channel pipettes 5-50 μl, 50-200 μl. Plate washer ZLE201 (Amersham Inc., UK), incubator at 37° C.—Imperial II (Lab-Line Instruments Inc., USA), EIA plate reader—Luminometer-Photometer LM01A (Immunotech, Beckman Coulter Company, USA).
Test procedure: Peptides for binding on the avidin-coated plate were taken from test-solution for determining the solubility of peptides (chapter 1.3., table 1 and 2) and were dissolved up to 2 mM in sample diluents immediately before the test procedure as shown in Table 3.
EIA plates were coated by adding to a well containing 100 μl of avidin dissolved 10 μg/ml in 50 mM carbonate buffer, pH 9.5 and incubated for 20 h at 20° C. The plates were washed 4 times with wash fluid. Peptides 2 mM, […] in sample diluent and incubated 60 min at 37° C. Control wells contain avidin. The plates were washed 4 times with wash fluid. Serum from each mouse and negative control were diluted 1:100, 1:1000 and 1:10000 in sample diluents and were added to the wells, coated by the corresponding peptide (100 μl per well) and incubated for 1 h at 37° C. The plates were washed 4 times with wash fluid. Conjugates of rabbit anti-mouse IgG antibody with HRPO (dilution of 1:3000 in conjugate diluent) were added to the wells (100 μl per well). The plates were incubated for 0.5 h at 37° C. […]

[2] = Testing of peptide solubility; assay type: physicochemical
[3] = 8M Urea, larger weights (TABLE 2), no additional solution

Row | Substance | Solubility [1] | OD 450 Mean values (n = 3-5) for dilution 1:10,000 (BALB/c female mouse) | Solubility [2, 3] | immune response (BALB/c female mouse) | Solubility ([2]; 8M Urea plus equal volume 0.1M Na-carbonate buffer, pH 9.5 (TABLE 2))
1 | SEQ ID 7: Rat MMP-9 synthetic oligopeptide, sequence DTDRKYGF | Soluble | 1.610 | Soluble |  | 
2 | SEQ ID 6: Bovine MMP-9 synthetic oligopeptide, sequence DADRQFGF | Soluble | 0.096 | Soluble |  | 
3 | SEQ ID 13: Chicken MMP-9 synthetic oligopeptide, sequence CHFPFIFEGRSYSRC | Soluble |  | Soluble | most active | 
4 | SEQ ID 19: Mouse MMP-9 synthetic oligopeptide, sequence DQDKLYGFCPTRVDA (printed identical to SEQ ID 17) | Soluble | 0.818 | Soluble |  | 
5 | SEQ ID 14: European Carp MMP-9 synthetic oligopeptide, sequence CHFPFLFEGTSYSSC | Soluble | 0.394 | Soluble |  | 
6 | SEQ ID 10: Rabbit MMP-9 synthetic oligopeptide, sequence DTDRRFGF | Soluble |  | Soluble |  | 
7 | SEQ ID 17: Bovine MMP-9 synthetic oligopeptide, sequence DQDKLYGFCPTRVDA | Soluble | 0.780 | Soluble |  | 
8 | SEQ ID 11: Mouse MMP-9 synthetic oligopeptide, sequence DKDGKFGF (printed identical to SEQ ID 5) | Soluble | 0.183 | Soluble |  | 
9 | SEQ ID 15: Pufferfish MMP-9 synthetic oligopeptide, sequence CHFPFRFQNKPYKHC | Soluble |  | Soluble | most active | 
10 | SEQ ID 20: Carp MMP-9 synthetic oligopeptide, sequence DKKYGFCPNRDTAVI | Soluble | 0.138 | Soluble |  | 
11 | SEQ ID 18: Rat MMP-9 synthetic oligopeptide, sequence DKADGFCPTRADVTV | Soluble | 0.138 | Soluble |  | 
12 | SEQ ID 12: Rat MMP-9 synthetic oligopeptide, sequence CHFPFTFEGRSYLSC | Insoluble | 0.661 |  |  | Soluble
13 | SEQ ID 8: Carp MMP-9 synthetic oligopeptide, sequence DKDKIFGF | Soluble | 0.097 | Soluble |  | 
14 | H-RILAVERYLKDQQLLGIWGCSGKLICTTAVPWNAS-OH (cysteine pairing not given here) [SP35, reference compound] |  |  | Soluble |  | 
15 | SEQ ID 16: Flounder MMP-9 synthetic oligopeptide, sequence CHFPFTFEGKSYTSC | Soluble | 0.823 | Soluble |  | 
16 | SEQ ID 5: Mouse MMP-9 synthetic oligopeptide, sequence DKDGKFGF | Soluble | 0.845 | Soluble |  | 
17 | SEQ ID 9: Pufferfish MMP-9 synthetic oligopeptide, sequence DKDKKYGF | Soluble | 0.131 | Soluble |  | 
18 | SEQ ID 21: Rabbit MMP-9 synthetic oligopeptide, sequence DKDKLYGFCPTRADS | Soluble | 0.411 | Soluble |  | 
